# Target: CLASPIN (UniProt Q9HAW4)
# Test: anti-myc co-immunoprecipitation
# Conditions: reference: wild-type RAD9-mH; sites T313
substance,measurement,value
RAD9 (from UniProt Q99638) RAD9-T313A-mH,binding against the reference,stronger
